Patent US8889615B2, “Methods for promoting epithelialization and healing of chronic wounds” (New York University, priority 2009, dated 2014)

System: Primary human keratinocytes
Assay: Keratinocyte migration, wound scratch assay
Type: cell-based
Conditions: 20 μmol/L LiCl or 25 ng/ml of EGF, 24 and 48 hours
Protocol: Primary human keratinocytes were grown to 80% confluency. Twenty-four hours before the experiment cells were transferred to basal KBM medium (Life Technologies, Inc., Grand Island, N.Y.). Before the scratch, cells were treated with 8 μg/ml mitomycin C (ICN, Irvine, Calif.) for 1 hour and washed with basal media. Scratches were performed as previously described (Lee, et al., J Mol. Biol., 345:1083-1097 (2005)). Cells were incubated with 20 μmol/L LiCl or 25 ng/ml of EGF for 24 and 48 hours, rephotographed, and cell migration was quantified as previously described (Lee, et al., J. Mol. Biol., 345:1083-1097 (2005); Zavadil. et al., EMBO J., 23:1155-1165 (2004)). Thirty measurements were taken for each experimental condition and distance coverage by cells moving into the scratch wound area was quantified. Three images were analyzed per condition, per time point, and averages and standard deviations were calculated.

B1: EGF: epidermal growth factor, promotes keratinocyte migration (protein, UniProt P01133 23-1207, looked up)
Pro-epidermal growth factor: PQHWSCPEGTLAGNGNSTCVGPAPFLIFSHGNSIFRIDTEGTNYEQLVVDAGVSVIMDFHYNEKRIYWVDLERQLLQRVFLNGSRQERVCNIEKNVSGMAINWINEEVIWSNQQEGIITVTDMKGNNSHILLSALKYPANVAVDPVERFIFWSSEVAGSLYRADLDGVGVKALLETSEKITAVSLDVLDKRLFWIQYNREGSNSLICSCDYDGGSVHISKHPTQHNLFAMSLFGDRIFYSTWKMKTIWIANKHTGKDMVRINLHSSFVPLGELKVVHPLAQPKAEDDTWEPEQKLCKLRKGNCSSTVCGQDLQSHLCMCAEGYALSRDRKYCEDVNECAFWNHGCTLGCKNTPGSYYCTCPVGFVLLPDGKRCHQLVSCPRNVSECSHDCVLTSEGPLCFCPEGSVLERDGKTCSGCSSPDNGGCSQLCVPLSPVSWECDCFPGYDLQLDEKSCAASGPQPFLLFANSQDIRHMHFDGTDYGTLLSQQMGMVYALDHDPVENKIYFAHTALKWIERANMDGSQRERLIEEGVDVPEGLAVDWIGRRFYWTDRGKSLIGRSDLNGKRSKIITKENISQPRGIAVHPMAKRLFWTDTGINPRIESSSLQGLGRLVIASSDLIWPSGITIDFLTDKLYWCDAKQSVIEMANLDGSKRRRLTQNDVGHPFAVAVFEDYVWFSDWAMPSVMRVNKRTGKDRVRLQGSMLKPSSLVVVHPLAKPGADPCLYQNGGCEHICKKRLGTAWCSCREGFMKASDGKTCLALDGHQLLAGGEVDLKNQVTPLDILSKTRVSEDNITESQHMLVAEIMVSDQDDCAPVGCSMYARCISEGEDATCQCLKGFAGDGKLCSDIDECEMGVPVCPPASSKCINTEGGYVCRCSEGYQGDGIHCLDIDECQLGEHSCGENASCTNTEGGYTCMCAGRLSEPGLICPDSTPPPHLREDDHHYSVRNSDSECPLSHDGYCLHDGVCMYIEALDKYACNCVVGYIGERCQYRDLKWWELRHAGHGQQQKVIVVAVCVVVLVMLLLLSLWGAHYYRTQKLLSKNPKNPYEESSRDVRSRRPADTEDGMSSCPQPWFVVIKEHQDLKNGGQPVAGEDGQAADGSMQPTSWRQEPQLCGMGTEQGCWIPVSSDKGSCPQVMERSFHMPSYGTQTLEGGVEKPHSLLSANPLWQQRALDPPHQMELTQ
modifications: Pro-epidermal growth factor
notes: epidermal growth factor, promotes keratinocyte migration
  keratinocyte migration: promoted
